Laboratory results: the supplement of paper PMC9170038

System: MS2 coat protein
Test: apparent KD of MS2 coat protein; designed switch direction (-1 OFF switch, 1 ON switch): 1; higher = weaker reporter binding
Outline: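 Designed RNA switches were transcribed on Illumina chips by stalled E. coli RNA polymerase and titrated with SNAP-549-labelled MS2 coat protein from 0.7 or 1.5 nM, doubling to 3 µM. Step length ran from 0.8–1.5 h at the lowest concentration to 10–20 min at the highest. The apparent KD is the median over clusters for each design, from curve-fitted normalised cluster fluorescence.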

[1] = Eterna round: R95, input ligand: FMN 200 uM
[2] = Eterna round: R95, input ligand: microRNA oligo, concentration not stated
[3] = Eterna round: R95, input ligand: none
[4] = input ligand: microRNA oligo, concentration not stated

Row | Sequence | apparent KD of MS2 coat protein [1] | apparent KD of MS2 coat protein [2] | apparent KD of MS2 coat protein [3] | apparent KD of MS2 coat protein (input ligand: FMN 200 uM) | apparent KD of MS2 coat protein [4] | apparent KD of MS2 coat protein (input ligand: none)
1 | AGCUAUCGAAAACGAUAGCAAAAGCAUGUACAUGAGGAUCACCCAUGUCAUGUACAAGUUUUUUGCUCGUCUUAAAA [Zipper 23 - 13] (puzzle: Sensor for hsa-mir-208a) | 107 nM | 13.1 nM | 121 nM | – | – | –
2 | GAAUAGUUGAGAGGAUAUCUAUUAUUGUAGGAUAGAGAAGGUUUUAACAUGAGGAUCACCCAUGUAGGACUAUAUAUGUGAAUA [Parity 99 - Jieux - Same State NG 1] (Eterna round: R96, puzzle: Same State NG 1) | – | – | – | 14.2 nM | 12.5 nM | 15.3 nM
3 | GGAGCCGGCCUAGGAUAUUUCAUAAAAAAACAUGAGGAUCACCCAUGUAGGCCAGAAGGCCUUGGGAAGAAGGAGGUCGGCUCC [Loop Effect - Control] (Eterna round: R96, puzzle: Same State NG 2) | – | – | – | 8.94 nM | 11.9 nM | 21.3 nM
4 | UGGAUCUAGGCUUGCCUGGGUCCAUGCUGACAUGAGGAUCACCCAUGUGCAUUCUAUAAGCUUUUUGUUUGUCAGCU (puzzle: Sensor for hsa-mir-208a) | 360 nM | 25.1 nM | 411 nM | – | – | –
5 | AAAUAAUAGGCAGGAUAUGGGAAAGGAAGUGUACCAGAAGGGCCGCAACUCAAUACAACAUGAGGAUCACCCAUGUUAGUGUCG [PowerStrip SSNG 1.5] (Eterna round: R96, puzzle: Same State NG 1) | – | – | – | 10.2 nM | 14.9 nM | 15.7 nM
6 | UGUUAACAUGAGGAUCACCCAUGUCAAAAGAAUCGAGGAUAUGGUAAGUAAUAAGAGAAUCUAGAAGGCGAAGUUG [Altered State 1-24 - Jieux - Same State 1] (puzzle: Same State 1) | 42.7 nM | 55.9 nM | 60.9 nM | – | – | –
7 | UGUUGUAUUACAGGAUAUCUAGUAAUUUUAUUUAGAGAAGGGUAUUCACAUGAGGAUCACCCAUGUAUAUACGAGGAAGUUGUG [JMF's solution 35] (Eterna round: R96, puzzle: Same State NG 1) | – | – | – | – | 27.8 nM | –
8 | CUGUGUUGCGGGCAGGAUAUGUAUUGGAAUACAUGAGGAUCACCCAUGUGCGGGUGUUUCACCCGACAGAAGGGCCAAUCGCGAC [JL-ss2-3.21 ViennaUCT mod] (puzzle: Same State 2) | – | 266 nM | – | – | – | –
9 | GUACAGAUCAGAGGAUAUCACGUCGUUUAGACGUGAGAAGGCUGAUCACACAUGAAUAUUAGUACAUGAGGAUCACCCAUGUAC [SSNG1/15-A3] (Eterna round: R96, puzzle: Same State NG 1) | – | – | – | 13.7 nM | 13.4 nM | 17.5 nM
10 | GGGCCAGCUUGUGCUGGGCCUUCGCUUGCACAUGAGGAUCACCCAUGUCGUGUACAUGCUUGGUGCCCGUCUUUCCC [Photon Torp-15] (puzzle: Sensor for hsa-mir-208a) | 182 nM | 49.2 nM | 201 nM | – | – | –
11 | UAAAGAUCGCGAGGAUAUCGCGAGGAUCACCCGUGAGAAGGCGCAGAGCCGAGGAUCACCCGGCUGAUCCUGAGGAGGAGGUCA (Eterna round: R96, puzzle: Same State NG 1) | – | – | – | 204 nM | 213 nM | 302 nM
12 | CGUCCGGCCUGUGCUGGCCGGUAGCUUGUACAUGAGGAUCACCCAUGUUCAUGUGCUGGCUUUUUGCUCGUCUUGUG [salish99_mir208a_017] (puzzle: Sensor for hsa-mir-208a) | 283 nM | 27.2 nM | 419 nM | – | – | –
13 | GCUCGAUGAAAGUCCUACAUGAGGAUCACCCAUGUACGUGGGCAGGAUAUCUACAUGCAGAAUGUAGAGAAGGGCCCAUCGAGC [SameState NG3 #59] (Eterna round: R96, puzzle: Same State NG 3) | – | – | – | 10.4 nM | 15.1 nM | 25.2 nM
14 | AGAGCCGGCACUGAGGAUAUUCAUAAUAAAACAUGAGGAUCACCCAUGUAGGCCAGAAGGCCUUGGGAGAAGGCAGGUCGGCUCA [Mat - Same State 2 - Mod of UCT - D67] (puzzle: Same State 2) | 16.7 nM | 176 nM | 269 nM | – | – | –
15 | GACAAUCUAUCUGAGGAUAUCAUGAAUAAAACAUGAGGAUCACCCAUGUGCAGGAUAACUGCAAAUGAGAAGGCAGAUAGAUUGG [Mat - Same State 2 - Mod - D9] (puzzle: Same State 2) | 9.21 nM | 20 nM | 18 nM | – | – | –
16 | CUGAGCGAUCAAGGAUAUCACGUCGAAUAGACGUGAGAAGGUGAUCAUAACAUGAGGAUCACCCAUGUAUUACAUGAAGCUCAG [SSNG1/2-A1] (Eterna round: R96, puzzle: Same State NG 1) | – | – | – | 231 nM | 536 nM | 2240 nM
